According to the supplement of paper PMC9170038:

tested on: MS2 coat protein; assay: apparent KD of MS2 coat protein; higher = weaker reporter binding; settings: Eterna round: R107; input ligand: arginine 13.2 mM
Outline: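 In 100 mM Tris-HCl pH 7.5 with 80 mM KCl and 4 mM MgCl2, and without or with constant ligand, SNAP-549-labelled MS2 coat protein was titrated in twofold steps from 0.7 or 1.5 nM to 3 µM. Per-step times went from 0.8–1.5 h down to 10–20 min. The RNA switches were transcribed on-chip from Illumina sequencing clusters, and apparent KD is the per-design median of normalised cluster binding-curve fits.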

Sequence	apparent KD of MS2 coat protein [nM]
AAUAAAUCGCCUGAUACCAGCGCUGGCGGACAUGAGGAUCACCCAUGUGUUACAGGCGGACGCCCUUGGCAGCGGAGCGGGAUCU [U-Shape]	16.2
GUGGAGACAUGAGAUACCAGUCUCUUUAACAUGAGGAUCACCCAUGUAAUGCUCCUCGGAGACCCUUGGCAGCUCAGUAUGAUGA [#09 Exclusion-TheophyllineB]	32.2
GCACAAGAUGGAAGGAGCGCUGGUAAAGGUCACAUGAGGAUCACCCAUGUGCUCCUUGCCGAGCAGGUAGGUCGCCAUCUUGUGC [SSAB NP+V+V2 #3]	14.1
AAUAAUAACUGAAGGAGCGUCUAUAUUACAUGAGGAUCACCCAUGUUUAUAUGGUAUUAUAGACAGGUAGGUCGCAGAUUUUUUA [JR_SSArginiB_Sub016]	14.5
UUGCAGAUCGGAAAGGUCCUGCUGUUCGAAGGAGCGGUAAAAGUACCAGGUAGGUCGCGAACAUGAGGAUCACCCAUGUUUGCAA [Usmaenbi]	11.3
AUACCUAAUGUUACAUUUACCUUAUCAGAUACCAGACUUUACGUUGUCCCUUGGCAGCUGUAUCACAUGAGGAUCACCCAUGUUG [JR_SSTheophyA_Sub010]	17.1
AUGUCGUUGAAUAUAGCGGCUUGGUGUGAUACCAGAAUGAUCUAAUUCCCUUGGCAGCAUUACAUGAGGAUCACCCAUGUUCCAG [SSTheo A #21]	23.6
CCCAUACAUGAGGAUCACCCAUGUGUUGAUACCAGCAUAUGUAGAUGCCCUUGGCAGCAAGCUUGGGUCACUGGAAAACAUCUAA [theeternabot_sameState_MS2_Theo_A_38]	23.8
AACAUGAGGAUCACCCAUGUGUCCUCGAAACGAGGACCGGUACGGCCGCCACUCGAGCUAUGUUGACGAAAAGUCAGCAUAGCAA [Mat - Exclusion - Trytophan A - D13]	123
ACACAUGAGGAUCACCCAUGUAAAGUUGAAGGAGCGAUCAUUAGGUCAGGUAGGUCGCAGCACAUGAGGAUCACCCAUGUCGUGA [DOUBLE!!! :-D #2]	31.3
GUCGCUGAGGGAAGGAGCGUGAAGACAUGAGGAUCACCCAUGUAGAGGCGCCGAAGGCGUUCGCAGGUAGGUCGCCCUCAGUGAC [#1 Same State - Arginine B Attempt #22 (HarryS)]	42.4
GGUGGCGGGACUGAUACCAGCCACCACCGAUAGACCACAUGAGGAUCACCCAUGUUGGGUGGCCCUUGGCAGCAGUCUUGCGGCG [#1 Same State - Theophylline B Attempt #15 (HarryS)]	85.5
GCUCACAUGAGGAUCACCCAUGUACGUCCGCGAGGACCGGUACGGCCGCCACUCGUGUUAGCUUCAAACUUGUUAGUGUUAAACA [Atleerge]	31.3
AAUGGCCGUACCGGAAGGGUGAUCCUCAAACGAGGACCGGUACGGCCGCCACUCGAUAACAUGAGGAUCACCCAUGUAAUAAUAA [|T'-M'-Trp-Ms2|_Design13]	85
GGGCCCGGCCGAAAGGCCGGGCCCGCUGAAGGAGCGGGAAAUAACCCAGGUAGGUCGCAGAGAUCCACAUGAGGAUCACCCAUGU [#26 Exclusion - Arginine A]	38.7
AACCGAGGCUAUCCUCUAAGAAUAUGUGAUACCAGAAUAAUUUUAUUCCCUUGGCAGCAUGACAUGAGGAUCACCCAUGUGUCUU [SSTheo A #7]	70
UAGACGGCCGGAAGGAGCGGUACAUGAGGAUCACCCAUGUACUUCUGGGCAUCCGUAGUGUGCCAGGUAGGUCGCCGGUUGCGGG [XArg-B20]	45.9
CAACUGGCAGAGGAUACCAGAUCAUUUAGAAACAUGAGGAUCACCCAUGUCGUAAGGAUAAUCCCUUGGCAGCCUAUCCGCCUCG [theeternabot_sameState_MS2_Theo_B_48]	14.2
CUAAGAGCGGCGGCCGCCACUGGUAACCAAGAGGCGGAGCCUCUGACAUGAGGAUCACCCAUGUUCAGGACCGGGUCGUCUUAGA [#07 Same State - Tryptophan B]	7.23

Sequence	apparent KD of MS2 coat protein [nM]
AACUACUCGAGGUGAUCCUACGAGUGGCAACGAGGACCGGUACGGCCGCCACUCGAAUAAACAUGAGGAUCACCCAUGUACAAAU [T''-M'-T'-T-MS2 - Design 12]	92.2
CCUCCUUGUACGGCCGCCACUGCAUCUCUGGAUACUCCGAUAAUACAUGAGGAUCACCCAUGUUACAGGACCGGGUAUAUAUUAC [theeternabot_sameState_MS2_Trp_B_19]	14.7
GGAUAGGACAGAAGGAGCGACAUGGCAGAAACUGCAAUCCUCCUACACGAGGAUCACCCGUGUCAGGUAGGUCGCUGUCCUAUCG [ArgXB 12 #Zipper #MS2Left #StaticStem #Blueprint]	25.6
CUAUCCUUGCCGGAUGAAGGACACUGAGAAGGAGCGCGGUAAUCCGCAGGUAGGUCGCUCAGGAGUACAUGAGGAUCACCCAUGU [Xeonrave]	16.1
CUGACGUAGGAAGAUAUCUGGAACAAGGAUACCAGUAAACCAACAUACCCUUGGCAGCCUAAAACAUGAGGAUCACCCAUGUAAU [theeternabot_exclusion_MS2_Theo_A_26]	11.9
ACGAACGCACCUGAGGAUCACCCGGGUGAUACCAGCCUGGAAACAGGCCCUUGGCAGCACCUAAAAUAAAGGUAACGUUCGAAUA [TheoAX9 #MicroSwitchBubble #AlternativeMS2]	116
CACGGAUGAGUGGAUCACCCUCAUAAUAACCGAGGACCGGUACGGCCGCCACUCGAAAACCGUGACCUGUACGAAAAGUGCAGGA	28
UGAGAUCCUCAUGAUACCAGUGUACUACAUGAGGAUCACCCAUGUAGCAACAUCUGUAGACACCCUUGGCAGCAUGAGACCACGU [Theo B SS t5]	17.5
UUCGUAUUGUCGGCCGCCACUGCAACAUGAGGAUCACCCAUGUAAAUUUGGGAGUAGUUAUAUUACAGGACCGGGACAAUAGUAA [JR_ExcTryptoB_Sub019]	51.8
ACGGGCAUGGCGGCCGCCACUGGUUGGCGUGCGGAUGAGGGAACAUGAGGAUCACCCAUGUUGGUUAGGACCGGGCUGGCGUCGA [kkymullin]	12.6
UCACAUGAGGAUCACCCAUGUACAGGCGAUACCAGCCGUACAUUGGGCCCUUGGCAGCGCACCGAGGACUUUUUAAGCAUCUCGG [Diatbeen]	26.2
AGCAGCUCGAAAGAGUUGCACUCAUGUGAAGGAGCGCCCGUUAGGGCAGGUAGGUCGCACAUGAGGAUCACCCAUGUACCUUCUA [ArgAX 20 #OpenEnded #MS2Late]	84.4
UUGUUGUUUGGAAGGAGCGUGUAUGAGUUAGAACAUGAGGAUCACCCAUGUUGGAUGAUAGCACAGGUAGGUCGCCGGGUGGUGG [11.Y]	8.43
CUAUAUUAUAGAAGGAGCGUCGAAAAUGGGUAAACAUGAGGAUCACCCAUGUAAAGGGAACGACAGGUAGGUCGCUAUAAUAUAG [AstromonsSSArgB#13]	117
ACAUGAGGAUCACCCAUGUUUGUUGUUCCUCGAGGACCGGUACGGCCGCCACUCGAACGAGUGGCGCGCGCGCGCGCGCGCGCGC [aMa]	11.6
GCGAUGGAGCGAAGGAGCGUGCUAGUACAUGAGGAUCACCCAUGUGAGUCGCAUCGCUAAGCACAGGUAGGUCGCGCUCCAUCGC [EAB NP+V+V2 #9]	44.6
UCUUUCUUUGUAGAUACCAGCGUGUUAUCUUUCUUUUGACAUGAGGAUCACCCAUGUAUAUGCCCUUGGCAGCUACAUAUUCUUU [#01 Same State - Theophylline B]	18.1
ACUUUGUCGGGUGAUACCAGCCUCGGCAAAUCUCGUGCCGAACAUGAGGAUCACCCAUGUGGCCCUUGGCAGCACAUGACAACUC [Cezara]	26.3
AUUAAUUGUCGUGAUACCAGACAUACAUGAGGAUCACCCAUGUUAAGUAACAUUUUUUAUGUCCCUUGGCAGCACUUUUUAAUUA [JR_Nu_SSTheophyB_Sub017]	22

same assay, conditions: Eterna round: R107; input ligand: none

Sequence	apparent KD of MS2 coat protein [nM]
AAUAAAUCGCCUGAUACCAGCGCUGGCGGACAUGAGGAUCACCCAUGUGUUACAGGCGGACGCCCUUGGCAGCGGAGCGGGAUCU [U-Shape]	20.2
GCACAAGAUGGAAGGAGCGCUGGUAAAGGUCACAUGAGGAUCACCCAUGUGCUCCUUGCCGAGCAGGUAGGUCGCCAUCUUGUGC [SSAB NP+V+V2 #3]	11.7
